This note sets out measurements from patent US20210032351A1 (XDCEXPLORER SHANGHAI, published 2021).

The target of assay [1] is T1, wild-type human EGFR protein on the surface of cells (A431, HEB, U87MG) (human, UniProt P00533 25-1210).
T1 construct: whole, on cells; One molecule for all three cell lines; the cell line is named under assay; also called wild-type EGFR
The assay is described as follows: FACS on A431 cells. How it is done: (§1) The collected cells are suspended to 2×10⁶ cells/mL with an FACS buffer (HBSS+1% BSA, with the percentage being the mass percentage), added to a 96-well FACS reaction plate at 100 μL/well, then added with 100 μL/well of the purified EGFRvIII antibody (samples to be tested) obtained in example 2, and incubated on ice for 2 hours. The plate is centrifugally washed twice with the FACS buffer, added with 100 μL/well of a fluorescence (Alexa 488) labeled secondary antibody (purchased from Invitrogen), and then incubated on ice for 1 hour. The plate is centrifugally washed 3 times with the FACS buffer, added with 100 μL/well of a fixing solution [4% (v/v) paraformaldehyde] for suspending the cells, and centrifugally washed twice with the FACS buffer after 10 minutes. The cells are suspended in 100 μL of the FACS buffer, and the results are detected and analyzed by FACS (FACS Calibur, purchased from BD). Data analysis is performed by using the software (CellQuest) to obtain the mean fluorescence intensity (MFI) of the cells. Data is further analyzed by using the software (GraphPad Prism5) to perform data fitting and calculate EC50. […] A431 cells (human epidermal cell cancer cell lines) have a large amount of wild-type EGFR protein expressed on the surface thereof. […] U87MG cells (human glioma cell lines) have a small amount of wild-type EGFR protein expressed on the surface thereof, while HEB cells (human glioma cell lines) have a high level of wild-type EGFR protein expression on the surface thereof.

The target of assay [2] is T2, human EGFRvIII protein on the surface of U87MG-hEGFRvIII cells (human, UniProt P00533 25-1210).
T2 construct: whole, on cells; Stably transfected U87MG cells; also called mutant EGFRvIII protein; U87MG-EGFRvIII
Nature of the assay: FACS on U87MG-hEGFRvIII cells. How it is done: as §1, with “The cells are washed twice with the HBSS buffer and are counted, and then the cells are diluted with the HBSS buffer to 2×10⁶ cells/ml, added with 1% goat serum blocking solution, with the percentage being the mass percentage, and incubated on ice for 30 minutes, and then centrifugally washed twice with the HBSS buffer. The collected” for “The collected”

Assay [3] addresses T3, human EGFRvIII-hFc protein (human, UniProt P00533 25-645).
T3 construct: extracellular domain; also called immunogen A; hFc-tagged EGFRvIII protein; not shown: human IgG Fc fragment (hFc) of the pCpC vector
Nature of the assay: ELISA, EGFRvIII-hFc coated. As for the experimental part:
The purified immunogen A (EGFRvIII-hFc) obtained in example 1 (for the preparation method, see step (I) in example 1) is diluted with PBS to a final concentration of 1.0 μg/mL, and then added to a 96-well ELISA plate at 100 μl/well. The plate is sealed with a plastic film and incubated at 4° C. overnight. The next day, the plate is washed twice with a plate washing solution [PBS+0.01% (v/v) Tween20], and added with a blocking solution [PBS+0.01% (v/v) Tween20+1% (w/w) BSA] for blocking 2 hours at room temperature. […] The plate is incubated for 2 hours at 37° C., and then washed 3 times with the plate washing solution [PBS+0.01% (v/v) Tween20]. The plate is added with an HRP (horseradish peroxidase) labeled secondary antibody (purchased from Sigma), incubated at 37° C. for 2 hours, and then washed 3 times with the plate washing solution [PBS+0.01% (v/v) Tween20]. The plate is added with 100 μl of TMB substrate/well, incubated for 30 minutes at room temperature, and then added with 100 μl of stopping solution (1.0N HCl)/well. A450 nm value is read using an ELISA plate reader (SpectraMax 384plus, purchased from Molecular Device), and the results are shown in FIG. 11 and table 19.

The target in assay [4] is T4, human EGFRvIII protein on the cell surface (human, UniProt P00533 25-1210).
T4 construct: whole, on cells; the cell line is named under assay; also called hEGFRvIII; U87MG-hEGFRvIII
The assay is described as follows: FACS on CHOk1-EGFRvIII cells. How it is done: The desired cells are subjected to an expanded culture to 90% confluence in a T-75 cell culture flask; the medium is sucked out, and the cells are washed twice with a HBSS buffer (Hanks Balanced Salt Solution) (purchased from Invitrogen), and then treated with an enzyme-free cell dissociation solution (Versene solution: purchased from Life Technology) and collected. The cells are washed twice with the HBSS buffer and are counted, and then the cells are diluted with the HBSS buffer to 2×10⁶ cells/ml, added with 1% goat serum blocking solution, with the percentage being the mass percentage, and incubated on ice for 30 minutes, and then centrifugally washed twice with the HBSS buffer. The collected cells are suspended to 2×10⁶ cells/mL with an FACS buffer (HBSS+1% BSA, with the percentage being the mass percentage), added to a 96-well FACS reaction plate at 100 μL/well, then added with 100 μL/well of the purified EGFRvIII antibody (samples to be tested) obtained in example 2, and incubated on ice for 2 hours. The plate is centrifugally washed twice with the FACS buffer, added with 100 μL/well of a fluorescence (Alexa 488) labeled secondary antibody (purchased from Invitrogen), and then incubated on ice for 1 hour. The plate is centrifugally washed 3 times with the FACS buffer, added with 100 μL/well of a fixing solution [4% (v/v) paraformaldehyde] for suspending the cells, and centrifugally washed twice with the FACS buffer after 10 minutes. The cells are suspended in 100 μL of the FACS buffer, and the results are detected and analyzed by FACS (FACS Calibur, purchased from BD). Data analysis is performed by using the software (CellQuest) to obtain the mean fluorescence intensity (MFI) of the cells. Data is further analyzed by using the software (GraphPad Prism5) to perform data fitting and calculate EC50. […] A431 cells (human epidermal cell cancer cell lines) have a large amount of wild-type EGFR protein expressed on the surface thereof.

The target of assay [5] is T5, human wild-type EGFR protein on the cell surface (human, UniProt P00533 25-1210).
T5 construct: whole, on cells; Endogenous on A431, HEB, U87MG cells and normal human primary hepatocytes; transfected on CHOk1-EGFR cells; The cell is named under assay; also called A431; HEB
The assay is described as follows: FACS on CHOk1-EGFR cells. How it is done: as §1, with “The cells are washed twice with the HBSS buffer and are counted, and then the cells are diluted with the HBSS buffer to 2×10⁶ cells/ml, added with 1% goat serum blocking solution, with the percentage being the mass percentage, and incubated on ice for 30 minutes, and then centrifugally washed twice with the HBSS buffer. The collected” for “The collected”

B1: Murine anti-49G12 (antibody, V domains shown)
VH: EVQLLQSGAELVKPGASVKLSCTASGFNIKDYYMHWVKQRTEQGLEWIGRIDPEDGETKYAPKFQGKATMTADTSSNTAYLQLSSLTSEDTAVYYCASSAYYGRNYWGQGTTLTVSS
VL: QIVLTQSPAIMSASPGEKVTLTCSASSSLSSSYLYWYQQKPGSSPKLWIYSTSNLASGVPARFSGSGSGTSYSLTISSMEAEDAASYFCHQWSSYPYTFGGGTKLEIK
notes: Mouse hybridoma antibody; also called 49G12G5
As for B1, the binding result in assay [1] is reported as “no binding”. Also, the EC50 in assay [2] was found to be 7.9 nM.

B2: Murine anti-51G7 (antibody, V domains shown)
VH: EVQLQQSGAELVKPGASVKLSCTASGFNIKDFYIHWVKQRTEQGLEWIGRIDPEDGETKYAPKFQDKATIIADTSSNTAYLQLSSLTSEDTAVYYCASSSYYGNNYWGQGTTLTVSS
VL: QIVLTQSPAIMSASPGEKVTLTCSASSSVSSNYLYWYQQKPGSSPKLWIYSTSNLASGVPARFSGSGSGTSYSLTISSMEAEDAASYFCHQWSSFPYTFGGGTKLEIK
notes: Mouse hybridoma antibody; also called 51G7C2
In the case of B2, in assay [1], the binding result is on record as “no binding”. For the same molecule, in assay [2], the EC50 is 26.2 nM.

B3: Murine anti-56F10 (antibody, V domains shown)
VH: EVQLQQSGAELVKPGASVKLSCTASGFNIKDFYMHWVKQRTEQGLEWIGRIDPEDGETKYAPKFQGKATITADTSSNTAYLQLSSLTSEDTAVYYCGCRTGGFAYWGQGTLVTVSA
VL: QIVLTQSPAIMSASPGEKVTMTCSASSSVSYLYWYQQKPGSSPSLLIYDTSNLASGVPVRFSGSGSGTSYSLTISRMEAEDAATYYCQQWSRNPWTFGGGTKLEIK
notes: Mouse hybridoma antibody; also called 56F10G2
As for B3, in assay [1], the binding result is reported as “no binding”. This molecule yielded an EC50 in assay [2] of 12.3 nM.

B4: Murine anti-64B11 (antibody, V domains shown)
VH: EVQLQQSGAELVKPGASVKLSCTASGFNIKDYYMHWVKQRTEQGLEWIGRIDPEDGETKYAPKFQGKATITADTSSNTAYLQLSNLPSEDTAVYYCGCRTGGFAYWGQGTLVTVSA
VL: DILMTQSPSSMSVSLGDTVSITCHASQGINSNIGWLQQKPGKSFKALIYHGTNLEDGVPSRFSGSGSGADYSLTISSLESEDFADYYCVQYAQFPFTFGSGTELEIK
notes: Mouse hybridoma antibody; also called 64B11F2
As to B4, in assay [1], the binding result is reported as “no binding”. Besides, the EC50 in assay [2] is 25.3 nM.

B5: Murine anti-59G3 (antibody, V domains shown)
VH: DVQLQESGPGLVKPSQSLSLTCSVTGYSITSGYYWHWIRQFPENKLEWMGYISYDGSNIYNPSLKNRISITRDTSKNQFFLKLNSVTTEDTATYYCAINSDYALDYWGQGTSVTVSS
VL: QIVLTQSPAIMSASPGEKVTMTCSASSSVSYMYWYQQKPGSSPRLLIYDTSNLASGVPVRFSGSGSGTSYSLTISRMEAEDAATYYCQQWSSYSLTFGAGTKLELK
notes: Mouse hybridoma antibody; also called 59G3F12
As for B5, the binding result in assay [1] is on record as “no binding”. Besides, it took 40.9 nM to reach a half-maximal effect in assay [2] (EC50).

B6: c75G7C6-1 (antibody, human IgG1, V domains shown)
VH: EVQLQQSGPELVKPGASVKIPCKASGYTFTDYNMDWVKQSHGKSLEWIGDINPNNADTIYNQKFKGKATLTVDKSSSTAYMELRSLTSEDTAVYYCARGDYDGYYPVYYAMDYWGQGTSVTVSS
VL: ENVLTQSPAIMSASPGEKVTMTCRASSSVSSSYLHWYQQKSGASPKLWIFSTSNLAAGVPARFSGSGSGTSYSLTVSSVEAEDAATYYCQQYSGYPLTFGAGTKLELK
notes: Chimeric 75G7C6 with NG of heavy chain CDR2 mutated to NA; also called c754G7C6-1; mutant chimeric antibody NG/NA
Regarding B6, in assay [3], a half-maximal effect (EC50) was put at 0.02 nM and the “Maximum OD450 value” worked out at 3.44 OD450. Further, in assay [4], it took 7.45 nM to reach a half-maximal effect (EC50) and the “Maximum mean fluorescence intensity” value came out at 110000 MFI. In assay [5], the response was half-maximal at 11.3 nM (EC50) and the “Maximum mean fluorescence intensity” value was determined as 134000 MFI.

B7: c75G7C6-2 (antibody, human IgG1, V domains shown)
VH: EVQLQQSGPELVKPGASVKIPCKASGYTFTDYNMDWVKQSHGKSLEWIGDINPNQGDTIYNQKFKGKATLTVDKSSSTAYMELRSLTSEDTAVYYCARGDYDGYYPVYYAMDYWGQGTSVTVSS
VL: ENVLTQSPAIMSASPGEKVTMTCRASSSVSSSYLHWYQQKSGASPKLWIFSTSNLAAGVPARFSGSGSGTSYSLTVSSVEAEDAATYYCQQYSGYPLTFGAGTKLELK
notes: Chimeric 75G7C6 with NG of heavy chain CDR2 mutated to QG; also called c754G7C6-2; mutant chimeric antibody NG/QG
In the case of B7, in assay [3], the half-maximal effective concentration (EC50) worked out at 0.03 nM and the “Maximum OD450 value” was determined as 3.23 OD450. For the same molecule, in assay [4], a half-maximal response (EC50) required 11.6 nM and the “Maximum mean fluorescence intensity” value was determined as 111000 MFI. In addition, in assay [5], the EC50 was determined as 16.9 nM and the “Maximum mean fluorescence intensity” value was determined as 130000 MFI.

B8: c75G7C6-3 (antibody, human IgG1, V domains shown)
VH: EVQLQQSGPELVKPGASVKIPCKASGYTFTDYNMDWVKQSHGKSLEWIGDINPNNGDTIYNQKFKGKATLTVDKSSSTAYMELRSLTSEDTAVYYCARGDYEGYYPVYYAMDYWGQGTSVTVSS
VL: ENVLTQSPAIMSASPGEKVTMTCRASSSVSSSYLHWYQQKSGASPKLWIFSTSNLAAGVPARFSGSGSGTSYSLTVSSVEAEDAATYYCQQYSGYPLTFGAGTKLELK
notes: Chimeric 75G7C6 with DG of heavy chain CDR3 mutated to EG; Human IgG1/kappa; also called mutant chimeric antibody DG/EG
On to B8, for which, in assay [3], a half-maximal response (EC50) required 0.54 nM and the “Maximum OD450 value” came out at 1.86 OD450. Besides, in assay [4], the midpoint of the response, the EC50, lay at 24.8 nM and the “Maximum mean fluorescence intensity” value worked out at 94100 MFI. In addition, in assay [5], the midpoint of the response, the EC50, lay at 44.8 nM and the “Maximum mean fluorescence intensity” value amounted to 84700 MFI.
